From patent US20200165325A1

What was measured:
[1] = target: Env (gp120) of HIV-1 strain ZM249M.PL1 (HIV-1)
[2] = target: Env (gp120) of HIV-1 strain 3817.v2.c59 (HIV-1)
[3] = target: Env (gp120) of HIV-1 strain 6480.v4.c25 (HIV-1)
[4] = target: Env (gp120) of HIV-1 strain Q461.e2 (HIV-1)
[5] = target: Env (gp120) of HIV-1 strain C1080.c03 (HIV-1)
[6] = target: Env (gp120) of HIV-1 strain AC10.0.29 (HIV-1)
[7] = target: Env (gp120) of HIV-1 strain 928-28 (HIV-1)
[8] = target: Env (gp120) of HIV-1 strain CNE21 (HIV-1)
[9] = target: Env (gp120) of HIV-1 strain CNE17 (HIV-1)
[10] = target: Env (gp120) of HIV-1 strain R1166.c01 (HIV-1)
[11] = target: Env (gp120) of HIV-1 strain Ce703010054_2A2 (HIV-1)
[12] = target: Env (gp120) of HIV-1 strain T278-50 (HIV-1)
[13] = target: Env (gp120) of HIV-1 strain QH0692.42 (HIV-1)
[14] = target: Env (gp120) of HIV-1 strain 3415.v1.c1 (HIV-1)
[15] = target: Env (gp120) of HIV-1 strain Ce1176_A3 (HIV-1)
[16] = target: Env (gp120) of HIV-1 strain 1054_07_TC4_1499 (HIV-1)
[17] = target: Env (gp120) of HIV-1 strain ZM109F.PB4 (HIV-1)
[18] = target: Env (gp120) of HIV-1 strain RHPA4259.7 (HIV-1)
[19] = target: Env (gp120) of HIV-1 strain 620345.c01 (HIV-1)
[20] = target: Env (gp120) of HIV-1 strain CNE58 (HIV-1)
[21] = target: Env (gp120) of HIV-1 strain 89-F1_2_25 (HIV-1)
[22] = target: Env (gp120) of HIV-1 strain CNE30 (HIV-1)
[23] = target: Env (gp120) of HIV-1 strain R2184.c04 (HIV-1)
[24] = target: Env (gp120) of HIV-1 strain THRO4156.18 (HIV-1)
[25] = target: Env (gp120) of HIV-1 strain ZM247v1(Rev-) (HIV-1)
[26] = target: Env (gp120) of HIV-1 strain 3301.v1.c24 (HIV-1)
[27] = target: Env (gp120) of HIV-1 strain CAAN5342.A2 (HIV-1)
[28] = target: Env (gp120) of HIV-1 strain 1056_10_TA11_1826 (HIV-1)
[29] = target: Env (gp120) of HIV-1 strain T251-18 (HIV-1)
[30] = target: Env (gp120) of HIV-1 strain T257-31 (HIV-1)
[31] = target: Env (gp120) of HIV-1 strain 6545.v4.c1 (HIV-1)
[32] = target: Env (gp120) of HIV-1 strain TRO.11 (HIV-1)
[33] = target: Env (gp120) of HIV-1 strain Du172.17 (HIV-1)
[34] = target: Env (gp120) of HIV-1 strain 703357.C02 (HIV-1)
[35] = target: Env (gp120) of HIV-1 strain Du422.1 (HIV-1)
[36] = target: Env (gp120) of HIV-1 strain 6811.v7.c18 (HIV-1)
[37] = target: Env (gp120) of HIV-1 strain CNE53 (HIV-1)
[38] = target: Env (gp120) of HIV-1 strain 6540.v4.c1 (HIV-1)
[39] = target: Env (gp120) of HIV-1 strain 62357_14_D3_4589 (HIV-1)
[40] = target: Env (gp120) of HIV-1 strain WITO4160.33 (HIV-1)
[41] = target: Env (gp120) of HIV-1 strain T250-4 (HIV-1)
[42] = target: Env (gp120) of HIV-1 strain Du156.12 (HIV-1)
[43] = target: Env (gp120) of HIV-1 strain Ce0393_C3 (HIV-1)
[44] = target: Env (gp120) of HIV-1 strain 0815.v3.c3 (HIV-1)
[45] = target: Env (gp120) of HIV-1 strain REJO4541.67 (HIV-1)
[46] = target: Env (gp120) of HIV-1 strain 3103.v3.c10 (HIV-1)
[47] = target: Env (gp120) of HIV-1 strain Q842.d12 (HIV-1)
[48] = target: Env (gp120) of HIV-1 strain Ce0682_E4 (HIV-1)
[49] = target: Env (gp120) of HIV-1 strain Q259.d2.17 (HIV-1)
[50] = target: Env (gp120) of HIV-1 strain ZM197M.PB7 (HIV-1)

**Q.** What does the source list for NIH45-46^G54W IgG (antibody)?
**A.** neutralization IC50 [1]: 0.002 µg/mL; neutralization IC50 [2]: > 50 µg/mL; neutralization IC50 [3]: 0.004 µg/mL; neutralization IC50 [4]: 0.009 µg/mL; neutralization IC50 [5]: 0.2 µg/mL; neutralization IC50 [6]: 0.13 µg/mL; neutralization IC50 [7]: 0.06 µg/mL; neutralization IC50 [8]: 0.03 µg/mL; neutralization IC50 [9]: 0.036 µg/mL; neutralization IC50 [10]: 0.13 µg/mL; neutralization IC50 [11]: 0.027 µg/mL; neutralization IC50 [12]: > 50 µg/mL; neutralization IC50 [13]: 0.37 µg/mL; neutralization IC50 [14]: < 0.001 µg/mL; neutralization IC50 [15]: 0.16 µg/mL; neutralization IC50 [16]: 0.04 µg/mL; neutralization IC50 [17]: 0.002 µg/mL; neutralization IC50 [18]: < 0.001 µg/mL; neutralization IC50 [19]: > 50 µg/mL; neutralization IC50 [20]: 0.02 µg/mL; neutralization IC50 [21]: > 50 µg/mL; neutralization IC50 [22]: 0.052 µg/mL; neutralization IC50 [23]: 0.005 µg/mL; neutralization IC50 [24]: 0.54 µg/mL; neutralization IC50 [25]: 0.32 µg/mL; neutralization IC50 [26]: < 0.001 µg/mL; neutralization IC50 [27]: 0.07 µg/mL; neutralization IC50 [28]: 0.024 µg/mL; neutralization IC50 [29]: 0.26 µg/mL; neutralization IC50 [30]: 0.13 µg/mL; neutralization IC50 [31]: 18.9 µg/mL; neutralization IC50 [32]: 0.04 µg/mL; neutralization IC50 [33]: 3.65 µg/mL; neutralization IC50 [34]: 3.43 µg/mL; neutralization IC50 [35]: > 50 µg/mL; neutralization IC50 [36]: < 0.001 µg/mL; neutralization IC50 [37]: < 0.001 µg/mL; neutralization IC50 [38]: > 50 µg/mL; neutralization IC50 [39]: 0.02 µg/mL; neutralization IC50 [40]: 0.01 µg/mL; neutralization IC50 [41]: 1.33 µg/mL; neutralization IC50 [42]: < 0.001 µg/mL; neutralization IC50 [43]: 0.013 µg/mL; neutralization IC50 [44]: < 0.001 µg/mL; neutralization IC50 [45]: 0.002 µg/mL; neutralization IC50 [46]: 0.2 µg/mL; neutralization IC50 [47]: 0.005 µg/mL; neutralization IC50 [48]: 0.01 µg/mL; neutralization IC50 [49]: < 0.001 µg/mL; neutralization IC50 [50]: 0.04 µg/mL

**Q.** With NIH45-46^G54Y IgG (antibody) as the substance, how does the neutralization IC50 [1] read?
**A.** 0.003 µg/mL

**Q.** What about the neutralization IC50 [2] of the same substance?
**A.** > 50 µg/mL

**Q.** And the neutralization IC50 [3]?
**A.** 0.018 µg/mL

**Q.** What about the neutralization IC50 [4] of the same substance?
**A.** 0.023 µg/mL

**Q.** And the neutralization IC50 [5]?
**A.** 0.29 µg/mL

**Q.** And the neutralization IC50 [6]?
**A.** 0.19 µg/mL

**Q.** What about the neutralization IC50 [7] of the same substance?
**A.** 0.12 µg/mL

**Q.** And the neutralization IC50 [8]?
**A.** 0.07 µg/mL

**Q.** What about the neutralization IC50 [9] of the same substance?
**A.** 0.073 µg/mL

**Q.** What about the neutralization IC50 [10] of the same substance?
**A.** 0.24 µg/mL

**Q.** What about the neutralization IC50 [11] of the same substance?
**A.** 0.022 µg/mL

**Q.** And the neutralization IC50 [12]?
**A.** > 50 µg/mL

**Q.** What about the neutralization IC50 [13] of the same substance?
**A.** 0.52 µg/mL

**Q.** What about the neutralization IC50 [14] of the same substance?
**A.** < 0.001 µg/mL

**Q.** What about the neutralization IC50 [15] of the same substance?
**A.** 0.21 µg/mL

**Q.** What about the neutralization IC50 [16] of the same substance?
**A.** 0.064 µg/mL

**Q.** And the neutralization IC50 [17]?
**A.** 0.026 µg/mL

**Q.** And the neutralization IC50 [18]?
**A.** 0.007 µg/mL

**Q.** What about the neutralization IC50 [19] of the same substance?
**A.** > 50 µg/mL

**Q.** What about the neutralization IC50 [20] of the same substance?
**A.** 0.04 µg/mL

**Q.** What about the neutralization IC50 [21] of the same substance?
**A.** > 50 µg/mL

**Q.** What about the neutralization IC50 [22] of the same substance?
**A.** 0.099 µg/mL

**Q.** What about the neutralization IC50 [23] of the same substance?
**A.** 0.015 µg/mL

**Q.** What about the neutralization IC50 [24] of the same substance?
**A.** 0.66 µg/mL

**Q.** What about the neutralization IC50 [25] of the same substance?
**A.** 0.42 µg/mL

**Q.** And the neutralization IC50 [26]?
**A.** 0.003 µg/mL

**Q.** What about the neutralization IC50 [27] of the same substance?
**A.** 0.1 µg/mL

**Q.** What about the neutralization IC50 [28] of the same substance?
**A.** 0.044 µg/mL

**Q.** And the neutralization IC50 [29]?
**A.** 0.35 µg/mL

**Q.** What about the neutralization IC50 [30] of the same substance?
**A.** 0.18 µg/mL

**Q.** What about the neutralization IC50 [31] of the same substance?
**A.** > 50 µg/mL

**Q.** And the neutralization IC50 [32]?
**A.** 0.08 µg/mL

**Q.** And the neutralization IC50 [33]?
**A.** > 50 µg/mL

**Q.** What about the neutralization IC50 [34] of the same substance?
**A.** 5.6 µg/mL

**Q.** What about the neutralization IC50 [35] of the same substance?
**A.** > 50 µg/mL

**Q.** And the neutralization IC50 [36]?
**A.** 0.011 µg/mL

**Q.** What about the neutralization IC50 [37] of the same substance?
**A.** 0.006 µg/mL

**Q.** And the neutralization IC50 [38]?
**A.** > 50 µg/mL

**Q.** And the neutralization IC50 [39]?
**A.** 0.03 µg/mL

**Q.** And the neutralization IC50 [40]?
**A.** 0.03 µg/mL

**Q.** And the neutralization IC50 [41]?
**A.** > 50 µg/mL

**Q.** What about the neutralization IC50 [42] of the same substance?
**A.** 0.007 µg/mL

**Q.** And the neutralization IC50 [43]?
**A.** 0.036 µg/mL

**Q.** What about the neutralization IC50 [44] of the same substance?
**A.** < 0.001 µg/mL

**Q.** And the neutralization IC50 [45]?
**A.** 0.007 µg/mL

**Q.** What about the neutralization IC50 [46] of the same substance?
**A.** 0.3 µg/mL

**Q.** And the neutralization IC50 [47]?
**A.** 0.015 µg/mL

**Q.** What about the neutralization IC50 [48] of the same substance?
**A.** 0.017 µg/mL

**Q.** And the neutralization IC50 [49]?
**A.** 0.009 µg/mL

**Q.** What about the neutralization IC50 [50] of the same substance?
**A.** 0.07 µg/mL
